For the test, the target named is Drosophila melanogaster cystathionine β-synthase (Drosophila melanogaster). Briefly: native gel or EMSA. A general note: Mobility shift assays separate free from complexed probe on a gel.

For the substance “Drosophila melanogaster cystathionine β-synthase (enzyme)”, the stoichiometry N (usually the number of molecules, sites or subunits per partner or assembly) came to 2.
